From paper PMC8448731 (2021)

Molecular target: recombinant RBD (ThermoFisher, RP-87678) (SARS-CoV-2, UniProt P0DTC2 319-541)
Experiment: BLI

B1: GST-tagged SR6v15 (VHH)
VHH: EVQLVESGGGLVQAGDSLRLSCAASGDSYILWRMGWFRQAPGKEREFVAAISLDGQFTNYADSVRGRFSISADSAKYTVYLQMNSLKPEDTAVYYCAALPFLDYWGQGTQVTVSS
koff: 0.00175 s⁻¹
